Assay results: patent publication US7745587 (DYAX, dated 2010)

B1: M0040-A11 Fab (Fab, V domains shown)
VH: EVQLLESGGGLVQPGGSLRLSCAASGFTFSHYVMFWVRQAPGKGLEWVSRIVPSGGATMYADSVKGRFTISRDNSKNTLYLQMNSLRAEDTAVYYCARDRPLYDSSGYVDYWGQGTLVTVSS
VL: QSALTQPPSASGSPGQSVTISCTGTSSDVGAYNYVSWYQQHPDKAPKLIIYNVNERPSGVPDRFSGSKSGNTASLTVSGLQAEDEADYYCTSYAGSNKIGVSGTGTKVTVL
B2: M0040-A06 Fab (Fab, V domains shown)
VH: EVQLLESGGGLVQPGGSLRLSCAASGFTFSYYGMYWVRQAPGKGLEWVSSISSSGGYTDYADSVKGRFTISRDNSKNTLYLQMNSLRAEDTAVYYCARRIKYYDIEGEGAFDIWGQGTMVTVSS
VL: DIVMTQTPPSLPVNPGEPASISCRSSQSLLHRNGYNYLDWYLQKPGQSPQLLIHLGSYRASGVPDRFSGSGSGTDFTLKISRVEAEDVGVYYCMQPLQTPFTFGPGTKVDIK
B3: M0031-C02 Fab (Fab, V domains shown)
VH: EVQLLESGGGLVQPGGSLRLSCAASGFTFSPYPMGWVRQAPGKGLEWVSSIVSSGGLTLYADSVKGRFTISRDNSKNTLYLQMNSLRAEDTAVYYCARGGRLYDILTGQGAPFDYWGQGTLVTVSS
VL: DIQMTQSPLSLPVTPGEPASISCRSSQSLLHSNGYYYLDWYLQKPGQSPQLLIYLGSYRASGVPDRFSGSGSGTDFTLKISSVEAEDVGVYYCMQALQTPLTFGGGTRVDIK
B4: M0043-G02 Fab (Fab, V domains shown)
VH: EVQLLESGGGLVQPGGSLRLSCAASGFTFSWYPMFWVRQAPGKGLEWVSGIYSSGGPTDYADSVKGRFTISRDNSKNTLYLQMNSLRAEDTAVYYCAKDTLGRYYDFWSGYSYGMDVWGQGTTVTVSS
VL: DIQMTQSPGTLSLSPGERATLSCRASQSVSSSYLAWYQQKPGQAPRLLIYGASSRATGIPDRFSGSGSGTDFTLTISRLEPEDFAVYYCQSGVTFGGGTKVEIK
B5: M0037-C09 Fab (Fab, V domains shown)
VH: EVQLLESGGGLVQPGGSLRLSCAASGFTFSHYEMFWVRQAPGKGLEWVSSISPSGGQTHYADSVKGRFTISRDNSKNTLYLQMNSLRAEDTAVYYCATDRTYYDFWSGYGPLWYWGQGTLVTVSS
VL: DIQMTQSPLSLPVTLGESASVSCRSSQSLLHENGHNYLDWYLQKPGQSPQLLIYLGSNRASGVPDRFSGSGSGTDFTLKISRVEAEDVGVYYCMQSLKTPPTFGPGTKVEIK
B6: M0043-G02 IgG (antibody, V domains shown)
VH: B4 VH
VL: B4 VL
notes: IgG of the Fab
B7: M0037-D01 IgG (antibody, V domains shown)
VH: EVQLLESGGGLVQPGGSLRLSCAASGFTFSMYMMIWVRQAPGKGLEWVSSIYPSGGNTMYADSVKGRFTISRDNSKNTLYLQMNSLRAEDTAVYYCATGVLRYFDWDAGSGMDVWGQGTTVTVSS
VL: DIQMTQSPSSLSASVGDRVTITCRASQGIRNDLGWYQQKPGKAPKRLIYVASSLQSGVPSRFSGSGSGTEFTLTISSLQPEDFATYYCLQHNSYPWTFGQGTKVEIK
notes: IgG of the Fab
B8: M0033-H07 IgG (antibody, V domains shown)
VH: EVQLLESGGGLVQPGGSLRLSCAASGFTFSVYGMVWVRQAPGKGLEWVSVISSSGGSTWYADSVKGRFTISRDNSKNTLYLQMNSLRAEDTALYYCARPFSRRYGVFDYWGQGTLVTVSS
VL: DIQMTQSPSSLSASVGDRVTITCRASQGIRNFLAWYQQKPGKVPKLLVFGASALQSGVPSRFSGSGSGTDFTLTISGLQPEDVATYYCQKYNGVPLTFGGGTKVEIK
notes: IgG of the Fab
B9: M0037-C09 IgG (antibody, V domains shown)
VH: B5 VH
VL: B5 VL
notes: IgG of the Fab; also called M037-C09
B10: M0040-A11 IgG (antibody, V domains shown)
VH: B1 VH
VL: B1 VL
B11: M0039-H08 Fab (Fab, V domains shown)
VH: EVQLLESGGGLVQPGGSLRLSCAASGFTFSAYNMGWVRQAPGKGLEWVSSISSSGGYTGYADSVKGRFTISRDNSKNTLYLQMNSLRAEDTAVYYCARDLYRGFDYWGQGTLVTVSS
VL: DIQMTQSPATLSVSPGERATLSCRASESVKNNLAWYQQKPGQAPRLLIYGVSTRAPGIPARFSGSGSGTDFTLTISSLEPEDFAVYYCQQRSNWPPVTFGQGTRLEIK
B12: M0039-H08 IgG (antibody, V domains shown)
VH: B11 VH
VL: B11 VL
B13: M0031-C02 IgG (antibody, V domains shown)
VH: B3 VH
VL: B3 VL
B14: M0037-D01 Fab (Fab, V domains shown)
VH: B7 VH
VL: B7 VL
B15: M0038-F01 germline (antibody, human IgG1, kappa, V domains shown)
VH: EVQLLESGGGLVQPGGSLRLSCAASGFTFSLYSMNWVRQAPGKGLEWVSSIYSSGGSTLYADSVKGRFTISRDNSKNTLYLQMNSLRAEDTAVYYCARGRAFDIWGQGTMVTVSS
VL: DIQMTQSPSSLSASVGDRVTITCRASQSVGTYLNWYQQKPGKAPKLLIYATSNLRSGVPSRFSGSGSGTDFTLTISSLQPEDFATYYCQQSYSIPRFTFGPGTKVDIKR
notes: Full chains; the ranges 20-464 and 20-234 come from claims 16, 18 and 20

What follows are binders tested against MMP-24 (human, UniProt Q9Y5R2 156-328, limits assumed) (assay: cell-based or functional assay).
MMP-24, sequence (Q9Y5R2 156-328 limits assumed): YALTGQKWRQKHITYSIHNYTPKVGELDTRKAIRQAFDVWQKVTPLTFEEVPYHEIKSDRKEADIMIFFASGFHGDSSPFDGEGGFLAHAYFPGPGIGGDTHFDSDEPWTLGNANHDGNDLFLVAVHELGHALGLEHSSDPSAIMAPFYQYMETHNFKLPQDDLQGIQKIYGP
For B1, the “MMP-24 activity, 100 nM final Fab with 5 nM MMP-24” value (“MMP-24 activity, 100 nM final Fab” below) was 58 % inhibition.
B2 was tested, and the “MMP-24 activity, 100 nM final Fab” value was 65 % inhibition.
For B3, the “MMP-24 activity, 100 nM final Fab” value was 54 % inhibition.
With B4 the “MMP-24 activity, 100 nM final Fab” value was 74 % inhibition.
For B5, the “MMP-24 activity, 100 nM final Fab” value was 72 % inhibition.

The binders below were run against T1, human MMP-14 (human, UniProt P50281 112-541, limits assumed) (assay: enzymatic inhibition assay, 2 nM MMP-14, 18 uM substrate Mca-Pro-Leu-Ala-Cys(Mob)-Trp-Ala-Arg-Dap(Dnp)-NH2; rate against [IgG] 0-50 nM).
T1 construct: Soluble MMP-14 used in selection, ELISA (biotinylated) and enzymatic assays; also called hMMP-14; bhMMP-14 (biotinylated human MMP-14)
Procedure: (§1) K_i studies were performed using an enzymatic assay at substrate [Mca-Pro-Leu-Ala-Cys(Mob)-Trp-Ala-Arg-Dap(Dnp)-NH_2] concentrations of 10 μM, 14 μM and 18 μM. […] The concentration of MMP-14 was 2 nM.
Work on B6 yielded a Ki of 1.1 nM.
With B7 the Ki was 2 nM.

Each binder was assayed against T1, human MMP-14 (assay: enzymatic inhibition assay, 2 nM MMP-14, 10 uM substrate Mca-Pro-Leu-Ala-Cys(Mob)-Trp-Ala-Arg-Dap(Dnp)-NH2; rate against [IgG] 0-50 nM).
Procedure: as §1
For B8, the Ki was 3.3 nM.
Binder B6 has a Ki of 0.7 nM.
Work on B9 yielded a Ki of 7.2 nM.

Each binder was assayed against T1, human MMP-14 (assay: cell-based or functional assay).
In the case of B1, the “IC50 of MMP-14 inhibition (MMP-14 at 2 pM), Fab” value (shortened to “IC50 of MMP-14 inhibition … Fab”) is reported as 23.2 nM.
In the case of B10, the “IC50 of MMP-14 inhibition (MMP-14 at 2 pM), IgG” value (“IC50 of MMP-14 inhibition … IgG” for short) is reported as 6.7 nM.
For B8, the “IC50 of MMP-14 inhibition … IgG” value was 5.1 nM.
In the case of B11, the “IC50 of MMP-14 inhibition … Fab” value is reported as 23 nM.
B12 was tested, and the “IC50 of MMP-14 inhibition … IgG” value was 7.4 nM.
In the case of B2, the “IC50 of MMP-14 inhibition … Fab” value is reported as 8.6 nM.
In the case of B3, the “IC50 of MMP-14 inhibition … Fab” value is reported as 56 nM.
For B13, the “IC50 of MMP-14 inhibition … IgG” value was 8 nM.
For B4, the “IC50 of MMP-14 inhibition … Fab” value was 9.3 nM.
In the case of B6, the “IC50 of MMP-14 inhibition … IgG” value is reported as 0.3 nM.
For B7, the “IC50 of MMP-14 inhibition … IgG” value was 1.7 nM.
In the case of B14, the “IC50 of MMP-14 inhibition … Fab” value is reported as 4.3 nM.
In the case of B5, the “IC50 of MMP-14 inhibition … Fab” value is reported as 11.5 nM.
In the case of B9, the “IC50 of MMP-14 inhibition … IgG” value is reported as 4.2 nM.

Each binder was assayed against T1, human MMP-14 (assay: enzymatic inhibition assay against 2 pM hMMP-14; rate (dF/min) against [I] 0-50 nM).
B15 gave an IC50 of 5.13 nM.

These binders were tested against T1, human MMP-14 (assay: enzymatic assay, IgG, 2 nM MMP-14, peptide substrate at 10, 14, 18 µM; highest Ki measured).
Procedure: as §1
Binder B8 has a Ki of 4 nM.
B6 gave a Ki of 1.2 nM.
B7 gave a Ki of 2.9 nM.
Work on B9 yielded a Ki of 8.6 nM.

The binders below were run against T1, human MMP-14 (assay: enzymatic inhibition assay against 2 pM hMMP-14; rate (dF/min) against [I] 0-100 nM; value taken from the line under the panel marked Parental, not from its inset table).
Binder B8 has an IC50 of 12.2 nM.

These binders were tested against T1, human MMP-14 (assay: enzymatic inhibition assay, 2 nM MMP-14, 14 uM substrate Mca-Pro-Leu-Ala-Cys(Mob)-Trp-Ala-Arg-Dap(Dnp)-NH2; rate against [IgG] 0-50 nM).
Procedure: as §1
Binder B8 has a Ki of 2.7 nM.
For B7, the Ki was 1.7 nM.
For B9, the Ki was 6.3 nM.
